Experimental data from patent US20160185857A1 (SUPPREMOL, published 2016).
One block for each binder: values may come before it.

Assays:
[1] = target: T1, recombinant soluble human FcγRIIB (human, UniProt P31994 43-217); assay: ELISA, sFcγRIIB coated on plates, hybridoma supernatant
T1 construct: also called sFcγRIIB
T1 sequence: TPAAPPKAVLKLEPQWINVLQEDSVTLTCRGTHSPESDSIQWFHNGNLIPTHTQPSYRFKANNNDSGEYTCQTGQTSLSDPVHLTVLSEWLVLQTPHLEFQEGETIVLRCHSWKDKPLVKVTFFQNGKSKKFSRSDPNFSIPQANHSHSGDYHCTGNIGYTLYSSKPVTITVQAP

[2] = target: T2, native FcγRIIA expressed on K562 cells (human, UniProt P12318 34-317); assay: flow cytometry on K562 cells
T2 construct: whole, on cells
T2 sequence (looked up): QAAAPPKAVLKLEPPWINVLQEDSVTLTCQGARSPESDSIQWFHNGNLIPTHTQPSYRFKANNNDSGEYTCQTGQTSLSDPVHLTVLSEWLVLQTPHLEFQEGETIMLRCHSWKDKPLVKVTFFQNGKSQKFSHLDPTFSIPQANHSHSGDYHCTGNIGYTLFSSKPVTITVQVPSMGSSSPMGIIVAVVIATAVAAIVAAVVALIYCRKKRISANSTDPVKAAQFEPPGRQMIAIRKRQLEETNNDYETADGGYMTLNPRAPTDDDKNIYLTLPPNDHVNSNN
Description: FIG. 5: Binding of 15 μg/ml antibody (hu8A6_VH+hu8A6_VL and ch8A6_N297A) to native FcγRIIA expressed on K562 cells.
Raji and K562 cells were incubated with increasing concentrations of humanized antibodies and the chimeric antibody as control. Raji cells were used to test binding on FcγRIIB (FIG. 4), K562 cells to analyze unspecific binding to FcγRIIA (FIG. 5). Cell bound antibodies were detected with PE-conjugated secondary antibody.

[3] = target: T3, native FcγRIIB, membrane-bound, endogenously expressed on human cells (Raji, Daudi, PBMC) (human, UniProt P31994 43-310); assay: cell-based or functional assay
T3 sequence (looked up): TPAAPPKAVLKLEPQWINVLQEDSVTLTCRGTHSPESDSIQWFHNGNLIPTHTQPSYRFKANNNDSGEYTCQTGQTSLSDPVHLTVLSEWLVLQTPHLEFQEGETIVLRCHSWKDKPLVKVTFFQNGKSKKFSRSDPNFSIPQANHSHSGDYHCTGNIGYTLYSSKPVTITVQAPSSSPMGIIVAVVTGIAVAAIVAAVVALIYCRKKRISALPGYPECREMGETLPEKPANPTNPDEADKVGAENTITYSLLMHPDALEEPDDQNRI

binding result [1]: binds
B1: monoclonal antibody 8A6 (rat IgG2a) (antibody, V domains shown)
VH: EVQLVESGGDLVQPGRSLRLSCAASGFTFSDYYMAWVRQAPKKGLEWVASISSDGSNTYYGDSVKGRFTISRDNTRSNLYLQMNSLRSEDTATYYCARPGDYWGQGVMVTVSS
VL: NIVMTQSPTSMFISVGDRVTMNCKASQNVGTYVDWFQQKTGQSPTLLIFGASNRYTGVPDRFTGSGSGTDFTLSISNMQAEDLAVYYCLQYNYHPYTFGPGTTLELKR
notes: Rat IgG2a from hybridoma supernatant; also called mAb 8A6; rat antibody 8A6

binding result [2]: no binding (tested: 15 µg/ml)
B2: ch8A6_N297A (chimeric 8A6, rat variable regions, human IgG1 N297A constant region, human kappa) (antibody)
heavy: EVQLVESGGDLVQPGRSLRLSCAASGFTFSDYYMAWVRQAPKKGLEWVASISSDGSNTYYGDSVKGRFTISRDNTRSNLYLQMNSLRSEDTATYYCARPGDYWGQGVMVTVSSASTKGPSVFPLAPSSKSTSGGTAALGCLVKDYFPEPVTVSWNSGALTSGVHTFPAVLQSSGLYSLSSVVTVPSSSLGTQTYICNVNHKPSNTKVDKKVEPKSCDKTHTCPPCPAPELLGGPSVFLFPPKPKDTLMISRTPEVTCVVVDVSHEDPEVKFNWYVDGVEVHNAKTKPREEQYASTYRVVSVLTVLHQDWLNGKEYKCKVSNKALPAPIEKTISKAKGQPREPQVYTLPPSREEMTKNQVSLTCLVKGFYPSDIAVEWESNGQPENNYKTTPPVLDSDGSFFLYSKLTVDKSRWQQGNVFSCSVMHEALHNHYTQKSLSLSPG
light: NIVMTQSPTSMFISVGDRVTMNCKASQNVGTYVDWFQQKTGQSPTLLIFGASNRYTGVPDRFTGSGSGTDFTLSISNMQAEDLAVYYCLQYNYHPYTFGPGTTLELKRTVAAPSVFIFPPSDEQLKSGTASVVCLLNNFYPREAKVQWKVDNALQSGNSQESVTEQDSKDSTYSLSSTLTLSKADYEKHKVYACEVTHQGLSSPVTKSFNRGEC
notes: also called chimeric 8A6_N297A

maximum fold phospho-signal of the FcγRIIB ITIM against untreated cells, densitometry of Western blot, Daudi cells [3]: 2.8 fold
B3: chGB3_N297A (chimeric GB3, prior art antibody of WO 2005/051999, N297A format) (antibody, V domains shown)
VH: VQLQQSGPELVKPGASVKISCKASGYTFTDYYIYWVKQWPGQGLEWIGWIFPGTGNTYYNENFKDKATLTIDRSSSTAYMLLGSLTSEDSAVYFCYGPFAYWGQ
VL: RIQLTQSPSSLSASLGERVSLTCRASQEISGYLSWLQQKPDGTIKRLIYATSALDSGVPKRFSGSGSGSNYSLTISSLESEDFADYYCLQYANYPYTFGGGTKL
